Measured values taken from patent publication US6767991.
Like-named read-outs stand apart in the source and are kept apart here. Where no end group is shown, it is not given here. [ ]: non-standard residue; d: D form. Pro(1-NpCH2O) = Pro(4-R13), R13 = 1-NpCH2O; Pro(2-NpCH2O) = Pro(4-R13), R13 = 2-NpCH2O; P1(R14 Et, 1R,2R) = not defined here; P1(R14 Et, 1S,2S) = not defined here; Pro(4-OBn) = Pro(4-R13), R13 = OBn; Pro(O-Bn) = Pro(4-R13), R13 = O-Bn; Pro(OBn) = Pro(4-R13), R13 = OBn; Chg = N[C@H](C(=O)O)C1CCCCC1; Acca = not defined here; Nva = CCC[C@H](N)C(=O)O; Ac3c = NC1(C(=O)O)CC1

B1: Compound 128 (Table 1): Ac-Asp-D-Glu-Ile-Val-Pro-Nva (peptide)
peptide: Ac-D[dE]IVP[Nva]
B2: Compound 202 (Table 2): Ac-Asp-D-Val-Ile-Val-Pro(O-Bn)-Nva (peptide)
peptide: Ac-D[dV]IV[Pro(O-Bn)][Nva]
B3: Compound 132 (Table 1): Ac-Asp-D-Glu-Chg-Glu-Glu-Acca (peptide)
peptide: Ac-D[dE][Chg]EE[Acca]
modifications: reading uncertain
B4: Compound 506 (Table 5): Ac-Chg-Chg-Pro(1-NpCH2O)-P1(R14 Et; 1S, 2S) (peptide)
peptide: Ac-[Chg][Chg]P[P1(R14 Et, 1S,2S)]
modifications: not fully specified (residue 3); reading uncertain
B5: Compound 213 (Table 2): Ac-Asp-D-Glu-Ile-Val-Pro(2-NpCH2O)-Nva (peptide)
peptide: Ac-D[dE]IV[Pro(2-NpCH2O)][Nva]
B6: Compound 257 (Table 2): Ac-Chg-Val-Pro(R13)-Acca, R13 drawn (peptide)
peptide: Ac-[Chg]VP[Ac3c]
modifications: not fully specified (residue 3); printed as Ac-Chg-Val-Pro(R13)-Acca
B7: Compound 517 (Table 5): Ac-Asp-D-Glu-Ile-Val-Pro(OBn)-P1(R14 Et; 1R, 2R) (peptide)
peptide: Ac-D[dE]IV[Pro(OBn)][(1R,2R)‑1‑amino‑2‑ethylcyclopropanecarboxylic acid]
B8: Compound 236 (Table 2): Ac-Gly-thioxo-Ile-Val-Pro(1-NpCH2O)-Nva (peptide)
peptide: Ac-GIVP[Nva]
modifications: not fully specified (residue 4); also: Ile2 thioxo (L-thionoisoleucine), thioamide
B9: Compound 513 (Table 5): Ac-Chg-Val-Pro(1-NpCH2O)-P1(R14 Et; 1R, 2R) (peptide)
peptide: Ac-[Chg]VP[P1(R14 Et, 1R,2R)]
modifications: not fully specified (residue 3); reading uncertain
B10: Compound 1001 (Table 10): Ac-Asp-D-Glu-Ile-Val-Pro(OBn)-P1(R14 Et; 1S, 2S)-NH-(S)-CHMePh (peptide)
peptide: Ac-D[dE]IV[Pro(OBn)][(1S,2S)‑1‑amino‑2‑ethylcyclopropanecarboxylic acid]-{NH‑(S)‑CHMePh}
B11: Compound 636 (Table 6): P6 Asp, P5 D-Glu, P4 Ile, P3 Val, R13 O-Bn, R14 vinyl (peptide)
peptide: D[dE]IV[Pro(O-Bn)][1‑amino‑2‑vinylcyclopropanecarboxylic acid]
modifications: not fully specified; also: further groups not given here
B12: Compound 211 (Table 2): Ac-Asp-D-Glu-Chg-Val-Pro(O-Bn)-Nva (peptide)
peptide: Ac-D[dE][Chg]V[Pro(O-Bn)][Nva]
B13: Compound 218 (Table 2): Ac-Asp-D-Glu-Ile-Val-Pro(O-Bn)-Nva (peptide)
peptide: Ac-D[dE]IV[Pro(4-OBn)][Nva]
B14: Compound 215 (Table 2): Ac-Asp-D-Glu-Chg-Val-Pro(1-NpCH2O)-Acca (peptide)
peptide: Ac-D[dE][Chg]V[Pro(1-NpCH2O)][Acca]
modifications: reading uncertain
B15: Compound 1002 (Table 10): Ac-Asp-D-Glu-Ile-Val-Pro(OBn)-P1(R14 Et; 1S, 2S)-NH-(R)-CHMePh (peptide)
peptide: Ac-D[dE]IV[Pro(OBn)][(1S,2S)‑1‑amino‑2‑ethylcyclopropanecarboxylic acid]-{NH‑(R)‑CHMePh}
B16: Compound 227 (Table 2): Ac-Chg-Val-Pro(1-NpCH2O)-Acca (peptide)
peptide: Ac-[Chg]VP[Ac3c]
modifications: not fully specified (residue 3); printed as Ac-Chg-Val-Pro(1-NpCH2O)-Acca
B17: Compound 228 (Table 2): Ac-Chg-Val-Pro(O-Bn)-P1, P1 drawn (peptide)
peptide: Ac-[Chg]VPX
modifications: not fully specified (residue 3); printed as Ac-Chg-Val-Pro(O-Bn)-P1

Experiments:
[1] = biological target: recombinant NS3 protease with the NS4A peptide cofactor … (molar ratio enzyme:cofactor 1:100) (hepatitis C virus genotype 1b); assay: cell-based or functional assay
[2] = biological target: recombinant NS3 protease with the NS4A peptide cofactor … (molar ratio enzyme:cofactor 1:100) (hepatitis C virus genotype 1b); assay: cell-based or functional assay; remark: listed apart in the source

Row | Binder | IC50 [1] [µM] | IC50 [2] [µM] | fold potency against the corresponding 1S,2S isomer (compound 514) [2] [fold]
1 | B1 | 7.4 |  | 
2 | B2 | 0.93 |  | 
3 | B3 | 36 |  | 
4 | B4 |  | 4.85 | 
5 | B5 | 0.036 |  | 
6 | B6 |  | 2.2 | 
7 | B7 | 0.075 |  | 
8 | B8 | 4 |  | 
9 | B9 |  | 1.66 | 25
10 | B10 | 2 |  | 
11 | B11 | 0.47 |  | 
12 | B12 | 0.12 |  | 
13 | B13 | 0.49 |  | 
14 | B14 | 0.014 |  | 
15 | B15 | 49 |  | 
16 | B16 |  | 3 | 
17 | B17 |  | 35 | 
